Data published in patent US20240279288A1, “APPLICATION OF PLANT JAZ PROTEINS AND DERIVED POLYPEPTIDES IN PREVENTION AND TREATMENT OF HUMAN AND ANIMAL TUMORS” (ANYANG INSTITUTE OF SINO-COTTON INDUSTRY INNOVATION, priority 2021, published 2024).

B1: GhJAZ1: cotton JAZ1 protein, gene number Gh_A05G0260, sequence SEQ ID No. 4; prokaryotically expressed with His tag, about 30 KD (protein)
chain: MSSCSESTAMKPARSPEKPSFAQTCNLLSQYLKEKGSFGDLSLGMTCNVEANGTPVVPPPTMNLFPLNDKSDDVCGRNGGNPKNLTSMDLFPQQAGLASKDDSPNKLEPQTAPMTIFYGGQVIVFNDFPANKAKEIMLLASNSSSQSNNSFNPIPFTSSIARSPIESSIGVPPTSKPVHPAQRAVPGDLPIARRASLHRFLEKRKDRITAKAPYQINNSAAAPSLSGDNKSWLGLAAQSP
modifications: His tag
notes: prokaryotically expressed with His tag, about 30 KD
B2: GhJAZ1 after deletion of NT domain: GhJAZ1 mutant with NT domain deleted, protein sequence SEQ ID No. 83 (protein)
chain: MSSCSESTAMKPARSPEANGTPVVPPPTMNLFPLNDKSDDVCGRNGGNPKNLTSMDLFPQQAGLASKDDSPNKLEPQTAPMTIFYGGQVIVFNDFPANKAKEIMLLASNSSSQSNNSFNPIPFTSSIARSPIESSIGVPPTSKPVHPAQRAVPGDLPIARRASLHRFLEKRKDRITAKAPYQINNSAAAPSLSGDNKSWLGLAAQSP

Key:
[1] = system: normal breast epithelial cells MCF10A; test: Cell cycle detection (PI DNA content), MCF10A; format: cell-based; conditions: 0.691 μM, 24 h, vs PBS
Protocol: Cell cycle detection: cells were moderately digested by trypsin, and collected by centrifugation with supernatant removed, and then cells were washed with PBS, and collected by centrifugation at 1,500 rpm for 5 minutes to prepare a single-cell suspension (at a concentration of 1×10^6/ml). 1 ml of single-cell suspension was then taken and centrifuged with the supernatant discarded, and then 500 μl of 70% pre-cooled ethanol were added to fix the cells overnight at 4° C. The next day, cells were collected by centrifugation, resuspended with 1 ml of PBS and centrifuged, and then 100 μl of RNase A solution were added to the cell pellet, followed by placement in water bath at 37° C. for 30 min, and then 400 μl of PI staining solution was added and mixed well, followed by incubation at 4° C. in dark for 30 min and detection on the instrument to record under red fluorescence at the excitation wavelength of 488 nm. Specifically, a DNA content detection kit (cell cycle) (Solarbio, Cat. No.: CA1510) was used.

[2] = system: GhTPL; test: Yeast two hybrid with GhTPL; format: binding, cotton
Protocol: (§1) The study on Arabidopsis had shown that the inhibition of JAZ protein on JA signaling was mainly achieved by inhibiting the transcription factor function of MYC, which had been experimentally verified by us in cotton. Based on the phylogenetic tree of Arabidopsis and cotton JAZs, we screened 6 cotton JAZs (GhJAZ1, GhJAZ7, GhJAZ9, GhJAZ10, GhJAZ11 and GhJAZ31), which were analyzed with GhMYC2, GhNINJA, GhTPL, GhHDA6, and GhCOI1 for yeast two hybrid. The amino acid sequence of GhJAZ1 was set forth in SEQ ID No. 4, and the corresponding encoding gene sequence was set forth in SEQ ID No. 39; the amino acid sequence of GhJAZ7 was set forth in SEQ ID No. 7, and the corresponding encoding gene sequence was set forth in SEQ ID No. 42; the amino acid sequence of GhJAZ9 was set forth in SEQ ID No. 2, and the corresponding encoding gene sequence was set forth in SEQ ID No. 37; the amino acid sequence of GhJAZ10 was set forth in SEQ ID No. 3, and the corresponding encoding gene sequence was set forth in SEQ ID No. 38; the amino acid sequence of GhJAZ11 was set forth in SEQ ID No. 5, and the corresponding encoding gene sequence was set forth in SEQ ID No. 40; and the amino acid sequence of GhJAZ31 was set forth in SEQ ID No. 9, and the corresponding encoding gene sequence was set forth in SEQ ID No. 44. The amino acid sequence of GhMYC2 was set forth in SEQ ID No. 71, and the corresponding encoding gene sequence was set forth in SEQ ID No. 72; the amino acid sequence of GhNINJA was set forth in SEQ ID No. 73, and the corresponding encoding gene sequence was set forth in SEQ ID No. 74; the amino acid sequence of GhTPL was set forth in SEQ ID No. 75, and the corresponding encoding gene sequence was set forth in SEQ ID No. 76; the amino acid sequence of GhHDA6 was set forth in SEQ ID No. 77, and the corresponding encoding gene sequence was set forth in SEQ ID No. 78; and the amino acid sequence of GhCOI1 was set forth in SEQ ID No. 79, and the corresponding encoding gene sequence was set forth in SEQ ID No. 80. […]

[3] = system: ovarian cancer cells SKOV3; test: CCK8 cell viability detection, SKOV3; format: cell-based, human; conditions: CCK8, 24 h treatment; read-out: IC50, inhibition of SKOV3 cells
Protocol: CCK8 cell viability detection: cell suspension was seeded in 96-well plates at a concentration of 5×10^4 cells/ml (100 μL/well). The plates were placed in the incubator for pre-culture (at 37° C., 5% CO2), and control and protein agents were added to each well 24 h after seeding. The plates were then placed in the incubator for 24 h, followed by addition of 10 μL CCK8 solution into each well and incubation of the plates in the incubator for 0.5-2 h before the absorbance measurement at 450 nm using a microplate reader.
Analysis of effect of GhJAZ1 protein on the cell cycle and apoptosis of tumor cells

[4] = system: GhMYC2; test: Luciferase experiment in tobacco leaves with GhMYC2; format: binding, cotton; conditions: no fluorescence on the control
From the text: Method of the luciferase experiment: GhJAZ1 (corresponding encoding gene sequence set forth in SEQ ID No. 39) was subcloned into pCAMBIA-CLuc vector (Chen, H., et al. “Firefly Luciferase Complementation Imaging Assay for Protein-Protein Interactions in Plants.” Plant Physiology 146.2(2008):368-376.) between KpnI and SalI cleavage sites, and the transcription factors such as GhMYC2 (corresponding encoding gene sequence set forth in SEQ ID No. 72), GhNINJA (corresponding encoding gene sequence set forth in SEQ ID No. 74), and GhCOI1 (corresponding encoding gene sequence set forth in SEQ ID No. 80) were subcloned into pCAMBIA-NLuc (Chen, H., et al. “Firefly Luciferase Complementation Imaging Assay for Protein-Protein Interactions in Plants.” Plant Physiology 146.2(2008):368-376.) between KpnI and SalI cleavage sites, respectively. […] Luciferase substrates were applied at the infected leaves before taking images and placed in a dark room for at least 6 min to quench fluorescence, followed by observation on the Nightowl-II LB983 instrument, using IndigoBasic software under the luciferase-5 min setting conditions.

[5] = system: GhNINJA; test: Yeast two hybrid with GhNINJA; format: binding, cotton
Protocol: as §1, with “44.” for “44. The amino acid sequence of GhMYC2 was set forth in SEQ ID No. 71, and the corresponding encoding gene sequence was set forth in SEQ ID No. 72; the amino acid sequence of GhNINJA was set forth in SEQ ID No. 73, and the corresponding encoding gene sequence was set forth in SEQ ID No. 74; the amino acid sequence of GhTPL was set forth in SEQ ID No. 75, and the corresponding encoding gene sequence was set forth in SEQ ID No. 76; the amino acid sequence of GhHDA6 was set forth in SEQ ID No. 77, and the corresponding encoding gene sequence was set forth in SEQ ID No. 78; and the amino acid sequence of GhCOI1 was set forth in SEQ ID No. 79, and the corresponding encoding gene sequence was set forth in SEQ ID No. 80.”

[6] = system: GhHDA6; test: CO-IP experiment with GhHDA6; format: binding, cotton
Protocol: Steps of method of CO-IP experiment: Non-denaturing lysate was added to 293T cell culture plate (Pricella, Cat. No.: CL-0005), and the cells were completely lysed at 4° C. The lysate was centrifuged at 12,000 rpm for 10 min and the supernatant was collected. The corresponding antibody was added to the obtained non-denatured protein solution, which was incubated overnight at 4° C. Pierce™ protein A/G magnetic agarose (Thermo Fisher Scientific, Inc.) were washed with lysis buffer, followed by addition pre-treated beads to the cell lysate, and incubation at room temperature for 2 hours. The mixture was centrifuged at 4° C., 2,500 rpm for 5 min with supernatant removed, and the agarose beads were washed 5 times with 1 ml of lysis buffer. An appropriate amount of protein loading buffer was added to the pellet, and the sample was incubated in water bath at 100° C. for 10 min. The band of interest was detected by Western blotting.

GhTPL, sequence (as listed by the source): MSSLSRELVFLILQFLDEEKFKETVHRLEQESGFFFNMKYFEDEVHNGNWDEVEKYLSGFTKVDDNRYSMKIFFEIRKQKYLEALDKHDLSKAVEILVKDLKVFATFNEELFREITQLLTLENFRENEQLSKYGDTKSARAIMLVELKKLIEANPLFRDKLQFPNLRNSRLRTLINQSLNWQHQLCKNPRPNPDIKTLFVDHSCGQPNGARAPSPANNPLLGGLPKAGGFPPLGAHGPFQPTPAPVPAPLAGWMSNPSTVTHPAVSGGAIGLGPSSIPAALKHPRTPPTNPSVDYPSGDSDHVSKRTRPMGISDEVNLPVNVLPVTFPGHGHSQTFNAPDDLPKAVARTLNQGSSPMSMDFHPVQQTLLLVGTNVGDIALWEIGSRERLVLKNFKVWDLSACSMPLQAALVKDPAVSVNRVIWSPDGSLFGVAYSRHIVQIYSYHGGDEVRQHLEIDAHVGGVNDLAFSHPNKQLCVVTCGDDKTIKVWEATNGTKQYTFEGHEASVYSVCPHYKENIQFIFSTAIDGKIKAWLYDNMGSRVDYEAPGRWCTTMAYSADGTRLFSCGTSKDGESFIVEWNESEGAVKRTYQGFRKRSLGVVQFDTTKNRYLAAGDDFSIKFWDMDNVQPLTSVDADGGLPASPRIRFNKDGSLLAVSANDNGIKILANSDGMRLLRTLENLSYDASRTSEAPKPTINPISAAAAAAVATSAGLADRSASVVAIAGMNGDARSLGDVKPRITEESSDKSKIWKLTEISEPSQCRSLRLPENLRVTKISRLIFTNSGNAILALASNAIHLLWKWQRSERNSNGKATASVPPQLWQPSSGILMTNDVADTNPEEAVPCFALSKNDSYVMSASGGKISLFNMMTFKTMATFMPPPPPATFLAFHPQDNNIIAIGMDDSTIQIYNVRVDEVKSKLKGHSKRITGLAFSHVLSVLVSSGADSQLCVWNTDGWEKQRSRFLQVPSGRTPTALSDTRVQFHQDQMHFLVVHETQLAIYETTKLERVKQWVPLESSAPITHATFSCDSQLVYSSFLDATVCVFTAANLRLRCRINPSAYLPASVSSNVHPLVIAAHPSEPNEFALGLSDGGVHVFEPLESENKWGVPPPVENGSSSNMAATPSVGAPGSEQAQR
GhNINJA, sequence (as listed by the source): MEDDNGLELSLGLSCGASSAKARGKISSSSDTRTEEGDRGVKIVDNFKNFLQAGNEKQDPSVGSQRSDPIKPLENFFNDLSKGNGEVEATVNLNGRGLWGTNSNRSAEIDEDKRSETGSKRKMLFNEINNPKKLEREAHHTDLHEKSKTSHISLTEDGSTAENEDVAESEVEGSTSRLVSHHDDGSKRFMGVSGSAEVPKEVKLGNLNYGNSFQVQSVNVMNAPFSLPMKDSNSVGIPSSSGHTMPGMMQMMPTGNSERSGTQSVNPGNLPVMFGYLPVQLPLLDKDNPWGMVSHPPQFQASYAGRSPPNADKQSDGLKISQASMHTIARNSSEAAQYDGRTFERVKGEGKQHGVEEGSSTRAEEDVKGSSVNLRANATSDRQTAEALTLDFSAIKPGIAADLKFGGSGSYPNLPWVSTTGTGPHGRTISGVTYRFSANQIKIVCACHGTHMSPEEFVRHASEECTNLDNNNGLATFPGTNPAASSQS
GhMYC2, sequence (as listed by the source): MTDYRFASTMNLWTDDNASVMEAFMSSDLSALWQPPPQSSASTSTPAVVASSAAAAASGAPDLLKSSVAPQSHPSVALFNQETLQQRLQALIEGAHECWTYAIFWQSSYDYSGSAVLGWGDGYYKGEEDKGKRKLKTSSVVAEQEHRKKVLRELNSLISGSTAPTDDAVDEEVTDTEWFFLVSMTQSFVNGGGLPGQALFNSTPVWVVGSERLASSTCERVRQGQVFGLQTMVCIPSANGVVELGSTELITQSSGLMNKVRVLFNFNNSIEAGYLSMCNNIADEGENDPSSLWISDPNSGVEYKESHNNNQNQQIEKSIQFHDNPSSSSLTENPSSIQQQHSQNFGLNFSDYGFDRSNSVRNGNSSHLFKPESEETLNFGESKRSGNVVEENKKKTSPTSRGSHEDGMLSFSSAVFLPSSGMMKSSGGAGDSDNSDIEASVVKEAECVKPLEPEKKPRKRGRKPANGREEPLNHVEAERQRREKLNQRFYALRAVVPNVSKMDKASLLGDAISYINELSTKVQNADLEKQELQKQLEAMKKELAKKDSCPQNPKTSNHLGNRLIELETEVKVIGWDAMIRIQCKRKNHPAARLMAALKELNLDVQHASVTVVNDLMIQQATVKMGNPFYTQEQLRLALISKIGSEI
GhHDA6, sequence (as listed by the source): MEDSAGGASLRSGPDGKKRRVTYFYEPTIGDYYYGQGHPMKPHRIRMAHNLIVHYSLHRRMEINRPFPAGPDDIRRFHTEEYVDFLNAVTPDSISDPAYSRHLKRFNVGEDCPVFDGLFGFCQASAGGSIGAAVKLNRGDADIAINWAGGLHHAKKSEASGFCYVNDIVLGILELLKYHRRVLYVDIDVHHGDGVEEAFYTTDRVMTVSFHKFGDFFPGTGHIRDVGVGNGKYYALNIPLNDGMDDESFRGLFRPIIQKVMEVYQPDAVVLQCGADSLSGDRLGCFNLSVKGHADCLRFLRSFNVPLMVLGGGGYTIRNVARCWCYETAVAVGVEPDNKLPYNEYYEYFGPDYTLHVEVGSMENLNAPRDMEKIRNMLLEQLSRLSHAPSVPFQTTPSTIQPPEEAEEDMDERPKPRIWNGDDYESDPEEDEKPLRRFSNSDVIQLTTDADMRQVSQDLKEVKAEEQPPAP

Row | Molecule | G2-M phase block in MCF10A cells [1] | interaction with GhTPL [2] | IC50 [3] [nM] | fluorescence with GhMYC2 after applying luciferase substrate [4] | interaction with GhNINJA [5] | interaction with GhHDA6 [6]
1 | B1 | no G2-M phase block | interacted | 784 | stronger fluorescence | interacted | interacts
2 | B2 |  | significantly weakened |  |  |  | 
